Results on 1 protein are retold here after PMC4301630, “Dynamic Growth and Shrinkage Govern the pH Dependence of RecA Filament Stability” (PLoS ONE, 2015).

This series deals with the molecule itself. The series is described as follows: single-molecule FRET (Cy3 and Cy5 on the DNA, TIRF microscopy); partial duplex DNA with a 60 nt 3' single-stranded overhang immobilised on a PEG-coated quartz slide; dyes 10 nt apart at the 5' side of the overhang report monomers joining and leaving the 5' end of the RecA filament; 1 uM RecA (0.5 uM RecAΔC17), 1 mM ATP, 10 mM Mg(OAc)2, 100 mM NaOAc, 10 mM Tris-OAc, Mes or Mops, pH 6.0 to 8.0, room temperature; ….

B1: RecA protein (wild type) (natural protein, UniProt P0A7G6 1-353, looked up)
chain: MAIDENKQKALAAALGQIEKQFGKGSIMRLGEDRSMDVETISTGSLSLDIALGAGGLPMGRIVEIYGPESSGKTTLTLQVIAAAQREGKTCAFIDAEHALDPIYARKLGVDIDNLLCSQPDTGEQALEICDALARSGAVDVIVVDSVAALTPKAEIEGEIGDSHMGLAARMMSQAMRKLAGNLKQSNTLLIFINQIRMKIGVMFGNPETTTGGNALKFYASVRLDIRRIGAVKEGENVVGSETRVKVVKNKIAAPFKQAEFQILYGEGINFYGELVDLGVKEKLIEKAGAWYSYKGEKIGQGKANATAWLKDNPETAKEIEKKVRELLLSNPNSTPDFSVDDSEGVAETNEDF
notes: RecA protein, wild type, bought from New England Biolabs; Forms helical filaments of many monomers on single-stranded DNA with ATP or ATPγS; the number of copies in the filament is not fixed; also called wild type RecA; source: bought: New England Biolabs, used without further purification
With B1, the binding result is “binds”.
